Results reported in the supplement of paper PMC9112550, “Optimization of the antimicrobial peptide Bac7 by deep mutational scanning” (BMC Biology, 2022).

Test system: Escherichia coli TOP10
Experiment: shrunken log2 fold change of peptide-encoding DNA abundance (4.5 h post-induction vs induction); higher = less antimicrobial activity (less host growth inhibition)
Settings: time post-induction: 4.5 h; library: site-saturation at positions 5, 18, 19, 20
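Further: peptides expressed intracellularly from a pBAD plasmid library in pooled LB shake-flask culture, induced with 0.3% L-arabinose, DNA abundance read by NGS, three biological replicates, DESeq2 with apeglm shrinkage.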

| Sequence | shrunken log2 fold change |
| --- | --- |
| RRIRYRPPRLPRPRPRPSMMPRP | -1.21 |
| RRIRYRPPRLPRPRPRPSMRPRP | -0.634 |
| RRIRYRPPRLPRPRPRPSMVPRP | -0.858 |
| RRIRYRPPRLPRPRPRPSNCPRP | -0.107 |
| RRIRYRPPRLPRPRPRPSNVPRP | -1.01 |
| RRIRYRPPRLPRPRPRPSNWPRP | -0.385 |
| RRIRYRPPRLPRPRPRPSPHPRP | -0.49 |
| RRIRYRPPRLPRPRPRPSPSPRP | -0.269 |
| RRIRYRPPRLPRPRPRPSSVPRP | -0.425 |
| RRIRYRPPRLPRPRPRPSVNPRP | -0.177 |
| RRIRYRPPRLPRPRPRPSVRPRP | -0.301 |
| RRIRYRPPRLPRPRPRPSWMPRP | -0.534 |
| RRIRYRPPRLPRPRPRPSWPPRP | -0.613 |
| RRIRYRPPRLPRPRPRPSYHPRP | -1.21 |
| RRIRYRPPRLPRPRPRPTAIPRP | -0.774 |
| RRIRYRPPRLPRPRPRPTDEPRP | -0.00133 |
| RRIRYRPPRLPRPRPRPTDGPRP | -0.0848 |
| RRIRYRPPRLPRPRPRPTDQPRP | -0.175 |
| RRIRYRPPRLPRPRPRPTEWPRP | -0.0714 |
| RRIRYRPPRLPRPRPRPTFPPRP | -0.279 |
| RRIRYRPPRLPRPRPRPTGCPRP | -0.0275 |
| RRIRYRPPRLPRPRPRPTGVPRP | -0.0415 |
| RRIRYRPPRLPRPRPRPTGWPRP | 0.088 |
| RRIRYRPPRLPRPRPRPTIAPRP | -0.338 |
| RRIRYRPPRLPRPRPRPTIKPRP | -0.151 |

| Sequence | shrunken log2 fold change |
| --- | --- |
| RRIRYRPPRLPRPRPRPTKMPRP | -0.22 |
| RRIRYRPPRLPRPRPRPTMGPRP | 0.0568 |
| RRIRYRPPRLPRPRPRPTNDPRP | -0.404 |
| RRIRYRPPRLPRPRPRPTNSPRP | -0.342 |
| RRIRYRPPRLPRPRPRPTQKPRP | -0.0476 |
| RRIRYRPPRLPRPRPRPTRKPRP | 0.00746 |
| RRIRYRPPRLPRPRPRPTRMPRP | 0.09 |
| RRIRYRPPRLPRPRPRPTSGPRP | 0.0452 |
| RRIRYRPPRLPRPRPRPTTMPRP | -0.722 |
| RRIRYRPPRLPRPRPRPVASPRP | -0.163 |
| RRIRYRPPRLPRPRPRPVCQPRP | -0.181 |
| RRIRYRPPRLPRPRPRPVDLPRP | 0.0483 |
| RRIRYRPPRLPRPRPRPVDRPRP | -0.126 |
| RRIRYRPPRLPRPRPRPVEFPRP | -1.06 |
| RRIRYRPPRLPRPRPRPVFVPRP | -0.458 |
| RRIRYRPPRLPRPRPRPVGVPRP | -0.0394 |
| RRIRYRPPRLPRPRPRPVIIPRP | -0.156 |
| RRIRYRPPRLPRPRPRPVIKPRP | -0.585 |
| RRIRYRPPRLPRPRPRPVIMPRP | -0.222 |
| RRIRYRPPRLPRPRPRPVISPRP | 0.0433 |
| RRIRYRPPRLPRPRPRPVLWPRP | 0.0894 |
| RRIRYRPPRLPRPRPRPVNAPRP | -0.361 |
| RRIRYRPPRLPRPRPRPVNGPRP | -0.338 |
| RRIRYRPPRLPRPRPRPVNNPRP | -1.68 |
| RRIRYRPPRLPRPRPRPVPKPRP | 0.0938 |

| Sequence | shrunken log2 fold change |
| --- | --- |
| RRIRYRPPRLPRPRPRPVPYPRP | -0.0727 |
| RRIRYRPPRLPRPRPRPVQEPRP | -0.149 |
| RRIRYRPPRLPRPRPRPVSSPRP | -0.272 |
| RRIRYRPPRLPRPRPRPVSVPRP | -0.0879 |
| RRIRYRPPRLPRPRPRPVVCPRP | -0.408 |
| RRIRYRPPRLPRPRPRPVVVPRP | 0.00571 |
| RRIRYRPPRLPRPRPRPVYGPRP | -0.0722 |
| RRIRYRPPRLPRPRPRPVYIPRP | -1.27 |
| RRIRYRPPRLPRPRPRPVYRPRP | -0.158 |
| RRIRYRPPRLPRPRPRPWAMPRP | -0.00232 |
| RRIRYRPPRLPRPRPRPWANPRP | -0.176 |
| RRIRYRPPRLPRPRPRPWDPPRP | -0.0966 |
| RRIRYRPPRLPRPRPRPWEYPRP | -0.142 |
| RRIRYRPPRLPRPRPRPWFCPRP | -0.0679 |
| RRIRYRPPRLPRPRPRPWHHPRP | -0.271 |
| RRIRYRPPRLPRPRPRPWHTPRP | -1.52 |
| RRIRYRPPRLPRPRPRPWICPRP | -0.593 |
| RRIRYRPPRLPRPRPRPWIQPRP | -0.101 |
| RRIRYRPPRLPRPRPRPWKIPRP | -0.245 |
| RRIRYRPPRLPRPRPRPWLCPRP | -0.0909 |
| RRIRYRPPRLPRPRPRPWQVPRP | -0.09 |
| RRIRYRPPRLPRPRPRPWRHPRP | -0.116 |
| RRIRYRPPRLPRPRPRPWRKPRP | -0.296 |
| RRIRYRPPRLPRPRPRPWVCPRP | -0.0275 |
| RRIRYRPPRLPRPRPRPWVLPRP | -0.223 |

| Sequence | shrunken log2 fold change |
| --- | --- |
| RRIRYRPPRLPRPRPRPWYHPRP | -0.0547 |
| RRIRYRPPRLPRPRPRPYADPRP | -0.136 |
| RRIRYRPPRLPRPRPRPYAQPRP | -1.36 |
| RRIRYRPPRLPRPRPRPYDGPRP | -0.155 |
| RRIRYRPPRLPRPRPRPYDPPRP | -0.325 |
| RRIRYRPPRLPRPRPRPYETPRP | 0.112 |
| RRIRYRPPRLPRPRPRPYFAPRP | -0.796 |
| RRIRYRPPRLPRPRPRPYFNPRP | -1.33 |
| RRIRYRPPRLPRPRPRPYGNPRP | -0.00695 |
| RRIRYRPPRLPRPRPRPYISPRP | -0.00213 |
| RRIRYRPPRLPRPRPRPYLMPRP | -0.254 |
| RRIRYRPPRLPRPRPRPYLNPRP | -0.802 |
| RRIRYRPPRLPRPRPRPYMSPRP | -0.00192 |
| RRIRYRPPRLPRPRPRPYPNPRP | -0.36 |
| RRIRYRPPRLPRPRPRPYPVPRP | 0.011 |
| RRIRYRPPRLPRPRPRPYQLPRP | -0.00146 |
| RRIRYRPPRLPRPRPRPYQVPRP | -0.289 |
| RRIRYRPPRLPRPRPRPYRGPRP | -0.765 |
| RRIRYRPPRLPRPRPRPYRHPRP | -1.4 |
| RRIRYRPPRLPRPRPRPYSFPRP | -0.106 |
| RRIRYRPPRLPRPRPRPYSWPRP | -0.156 |
| RRIRYRPPRLPRPRPRPYTVPRP | -0.00544 |
| RRIRYRPPRLPRPRPRPYWMPRP | -0.686 |
| RRIRYRPPRLPRPRPRPYYVPRP | 0.0372 |
